Laboratory results as given in the nanobody polyreactivity screen of Harvey et al. (2022).

Assay: yeast display, Sf9 membrane polyspecificity reagent, FACS + sequencing; frameworks hold sequencing errors
Outline: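 Genes from sorted yeast were amplified by colony PCR, read by MiSeq 2 × 250 sequencing and filtered on CDR length. These cells carried a synthetic nanobody library in Saccharomyces cerevisiae BJ5465 and were sorted by FACS into low and high (top ~1%) gates on anti-HA and streptavidin fluorescence. Polyreactivity is labelled according to the gate of origin.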

Which “polyreactivity (PSR sort gate)” value does the source give for “QVQLVESGGGLVQAGGSLRLSCAASGRIFIYNAMGWYRQAPGKEMELVAAISWSGGSTYYADSVKGRFTISRDNAKNTVYLQMNSLKPEDTAVYYCNARYYGPSWNSYDYWGQGTQVTVSS” here?
Its value is “high polyreactivity”.

Which “polyreactivity (PSR sort gate)” value does the source give for “QVQLVESGGGLVQAGGSLRLSCAASGRIFIYNAMGWYRQAPGKERELVAAISYSGGRTYYADSVKGRFTISRDNPKNTVYLQMNRLKPEDPAVYYCNAAYRISSAPGYFYFPYNYDYWGQGTQVTVSS” here?
Its value is “high polyreactivity”.

With “QVQLVESGGGLVQAGGSLRLSCAASGRIFIYNAMGWYRQATGKERELVAAISYRGGSTYYADSVKGRFTISRDNAKNTVYLQMNSLKPEDTAVYYCNAKIVQYGAHNYWGQGTQVTVSS” as the sequence, how does the “polyreactivity (PSR sort gate)” value read?
The value was “high polyreactivity”.

Which “polyreactivity (PSR sort gate)” value does the source give for “QVQLVESGGGLVQAGGSLRLSCAASGRIFIYNDMGWYRQAPGKERELVAAITFIDDSTNYADSVKGRFTISRDNAKYSVYLQMNRLKPEDTAVYYCAARLYSSASGVRWIKFDYWGQGTQVTVSS” here?
The value was “low polyreactivity”.

For “QVQLVESGGGLVQAGGSLRLSCAASGRIFKFNTMGWYRQAPGKERELVAVITLSGGRTFYADSVKGRFTISRDNAKNTVYLQMNSLKPEDTAVYYCAKDFEGYEGGLSRDDYWGQGTQVTVSS”, which “polyreactivity (PSR sort gate)” value is on record?
Its value is “low polyreactivity”.

For “QVQLVESGGGLVQAGGSLRLSCAASGRIFKFYDMGWYREAPGKERELVAAISHAGRTNYADSVKGRFTISRDNAKNTVYLQMNSLKPEDTAVYYCNTDYILVRGVPWYYKLDYWGQGTQVTVSS”, which “polyreactivity (PSR sort gate)” value is on record?
The value was “high polyreactivity”.

For “QVQLVESGGGLVQAGGSLRLSCAASGRIFKGNAMGWYRQAPGKEREFVAAISQRGGSTYYADSVKGRFTISRDNAKNTVYLQMNSLKPEDTAVYYCAAVRKSVGVKYDYWGQGTQVTVSS”, which “polyreactivity (PSR sort gate)” value is on record?
Its value is “high polyreactivity”.

Which “polyreactivity (PSR sort gate)” value does the source give for “QVQLVESGGGLVQAGGSLRLSCAASGRIFKGNGMGWYRQAPGKERELVAAISRSGGNTYYADSVKGRFTISRDNAKNTVYLQMNSLKPEDTAVYYCNVRYYTYRFLRFDYWGQGTQVTVSS” here?
The value was “high polyreactivity”.

Which “polyreactivity (PSR sort gate)” value does the source give for “QVQLVESGGGLVQAGGSLRLSCAASGRIFKGYAMGWYRKAPGKERELVAAITISGGSTYYADSVKGRFTISRDNAKNTVYLQMNSLIPEDTAVFYFAARKFVYWYGMEYWGQGTQVTVSS” here?
The value was “low polyreactivity”.

With “QVQLVESGGGLVQAGGSLRLSCAASGRIFKKNAMGWYRQAPGKERELVATITQRGGTTYYADSVKGRFTISRDNAKNTVYLQMNSLKPEDTAVYYCATEGYETWSYWYRGAYTYYYWGQGTQVTVSS” as the sequence, how does the “polyreactivity (PSR sort gate)” value read?
Its value is “high polyreactivity”.

With “QVQLVESGGGLVQAGGSLRLSCAASGRIFKNYAMGWYRQAPGKERELVAGITRTGGSTYYADSVKGRFTISRDNAKNTVYLQMNSLKPEDTAVYYCAARPARKLVYWVQGTQVTVSS” as the sequence, how does the “polyreactivity (PSR sort gate)” value read?
The value was “high polyreactivity”.

With “QVQLVESGGGLVQAGGSLRLSCAASGRIFKPYAMGWYRQAPGKERELVAAITDGGTTYYADSVKGRFTISRDNAKNTVYLQMNSLKPEDTAVYYCAADLGKLRYDYWGPGTQVTVSS” as the sequence, how does the “polyreactivity (PSR sort gate)” value read?
Its value is “low polyreactivity”.

For “QVQLVESGGGLVQAGGSLRLSCAASGRIFKQYAMGWYRQAPGKERELVAAISVRGGITYYADSVKGRFTISRDNAKNTVYLQMNSLKPEDTAVYYCAKRSYRTHTYDYWGQGTQVTVSS”, which “polyreactivity (PSR sort gate)” value is on record?
The value was “low polyreactivity”.

With “QVQLVESGGGLVQAGGSLRLSCAASGRIFKRYAMGWYRQAPGKERELVAAISKSGGSTYYADSVKGRFTISRDNAKNTVYLQMNSLKPEDTAVYYCNADPVRSGLDYWGQGTQVTVSS” as the sequence, how does the “polyreactivity (PSR sort gate)” value read?
The value was “high polyreactivity”.

Which “polyreactivity (PSR sort gate)” value does the source give for “QVQLVESGGGLVQAGGSLRLSCAASGRIFKRYAMGWYRQAPGKERELVAAISRGASTYYADSVKGRFTISRDNAKNTVYLQMNSLKPEDTAVYYCAAKGATPHYDYWGQGTQVTVSS” here?
The value was “high polyreactivity”.

For “QVQLVESGGGLVQAGGSLRLSCAASGRIFKRYAMGWYRQAPGKERELVASITTSGDSTYYADSVKGRFTISRDNAKNTVYLQMNSLKPEDTAVYYCAARSYRGRRYDYWGQGTQVTVSS”, which “polyreactivity (PSR sort gate)” value is on record?
The value was “high polyreactivity”.

Which “polyreactivity (PSR sort gate)” value does the source give for “QVQLVESGGGLVQAGGSLRLSCAASGRIFKRYVMGWYRQAPGKERELVAAISQRGGSTNYADSVKGRFTISRDNAKNTVYLQMNSLKPEDTAVYYCAAGFFSRYDYWGQGTQVTVSS” here?
The value was “high polyreactivity”.

With “QVQLVESGGGLVQAGGSLRLSCAASGRIFKSDGMGWYREAPGKERELVATISSSGDSTYYADSVKGRFTISRDNAKNTVYLQMNSLKPDDTAVYHCAKRARYKFGYWGQGTQVTVSS” as the sequence, how does the “polyreactivity (PSR sort gate)” value read?
Its value is “high polyreactivity”.

With “QVQLVESGGGLVQAGGSLRLSCAASGRIFKSYAMGWYRQAPGKERELVAAISRGGRTNYADSVKGRFTISRDNAKNTVYLQMNSLKPEVTAVYYCAARFVVQGHSSPYDYWGQGTQVTVSS” as the sequence, how does the “polyreactivity (PSR sort gate)” value read?
The value was “high polyreactivity”.

Which “polyreactivity (PSR sort gate)” value does the source give for “QVQLVESGGGLVQAGGSLRLSCAASGRIFKSYAMGWYRQSPGKERELVAIIRSSGTTYYADSVKGRFTISRDNAKNTVYLQMNSLKPEDTAVYYCAADPYYWRQFNYDYWGQGTQVTVSS” here?
Its value is “high polyreactivity”.

With “QVQLVESGGGLVQAGGSLRLSCAASGRIFKTNAMGWYRQAPGKERELVAAISRSGSRTSYADSVKGRFTISRDNAKNTVYLQMNSLKPEDTAVYYCATRGLYWKVGYWGQGTQVTVSS” as the sequence, how does the “polyreactivity (PSR sort gate)” value read?
The value was “high polyreactivity”.

Which “polyreactivity (PSR sort gate)” value does the source give for “QVQLVESGGGLVQAGGSLRLSCAASGRIFKTYAMGWYRPAPGTERELVAGISWRGGSTYYADSVKGRFTISRDNAKNTVYLQMNSLKPEDTAVYYCAADDTYTRYDYWGQGTQVTVSS” here?
Its value is “high polyreactivity”.

Which “polyreactivity (PSR sort gate)” value does the source give for “QVQLVESGGGLVQAGGSLRLSCAASGRIFKTYAMGWYRQAPGKERELVAGISWRGGSTYYADSVKGRFTISRDNAKNTVYLQMNSLKPEDTAVYYCAADDTYTRYDYWGQGTQVTVSS” here?
Its value is “high polyreactivity”.

With “QVQLVESGGGLVQAGGSLRLSCAASGRIFKVYAMGWYIQAPGKERELVAVISRGGSTYYADSVKGRFTISRDNAKNTVYLQMNSLKPEDTAVYYCAARLTYTGGQGAYDYWGQGTQVTVSS” as the sequence, how does the “polyreactivity (PSR sort gate)” value read?
The value was “high polyreactivity”.

With “QVQLVESGGGLVQAGGSLRLSCAASGRIFKVYAMGWYRQAPGKERDLVAVISRGGSTYYADSVKGRFTISRDNAKNTVYLQMKSLKPEDTAVYYCAARLTYTGGQGAYDYWGQGTQVTVSS” as the sequence, how does the “polyreactivity (PSR sort gate)” value read?
Its value is “high polyreactivity”.

For “QVQLVESGGGLVQAGGSLRLSCAASGRIFKVYAMGWYRQAPGKERELVAAITWSGVSTYADSVKGRFTISRDNAKNTVYLQMNSLKPEDTAVYYCAAYLRSPGDRQGYYYWGQGTQVTVSS”, which “polyreactivity (PSR sort gate)” value is on record?
The value was “high polyreactivity”.

With “QVQLVESGGGLVQAGGSLRLSCAASGRIFKWYAMGWYRQAPGKERELVAAITWRGGSTNYADSVKGRFTISRDNAKNTVYLQMNSLKPEDTAVYYCAVGTVFLTYRGYEYWGQGTQVTVSS” as the sequence, how does the “polyreactivity (PSR sort gate)” value read?
The value was “high polyreactivity”.

Which “polyreactivity (PSR sort gate)” value does the source give for “QVQLVESGGGLVQAGGSLRLSCAASGRIFKYNAMGWSIQAPGKERELVAAISSGGSTKYADSVKGRFTISRDNAKNTVYLQMNSLKPEDTAVYYCNAVYTPYRRSFYYWGHGTQVTVSS” here?
The value was “high polyreactivity”.

With “QVQLVESGGGLVQAGGSLRLSCAASGRIFKYNAMGWYIQAPGKERELVAVITSGGSTYYADSVKGRFTISRDNEKNTVYLQMNSLKPDDTEVYYCAKKYYKVHKFDYWGQGTQVTVSS” as the sequence, how does the “polyreactivity (PSR sort gate)” value read?
Its value is “low polyreactivity”.

Which “polyreactivity (PSR sort gate)” value does the source give for “QVQLVESGGGLVQAGGSLRLSCAASGRIFKYNAMGWYRQAPGKERELVAAISSSGGSTYYADSVKGRFTISRDNAKNTVYLQMNSLKPEDTAVYYCAARYAPTLSVYRFYYWGQGTQVTVSS” here?
Its value is “high polyreactivity”.

Which “polyreactivity (PSR sort gate)” value does the source give for “QVQLVESGGGLVQAGGSLRLSCAASGRIFKYYAKGWYIQAPGKERELVAAINRDGGRTYYADSVKGRFTISRDNAKNTVYLQMNSLKPEDTAVYYCAASYGYVYTTSLDYWGQGTQVTVSS” here?
The value was “low polyreactivity”.

With “QVQLVESGGGLVQAGGSLRLSCAASGRIFKYYAMGWYRQAPGKERELVAAISGTGGGTYYADSVKGRFTISRDNAKNTVYLQMNSLKPEDTAVYYCAALHQAYRGFDYWGQGTQVSVSS” as the sequence, how does the “polyreactivity (PSR sort gate)” value read?
The value was “high polyreactivity”.

Which “polyreactivity (PSR sort gate)” value does the source give for “QVQLVESGGGLVQAGGSLRLSCAASGRIFKYYAMGWYRQAPGKERELVAAISWTGVSTYYADSVKGRFTISRDNAKNTVYLQMNSLKPEDTAVYYCNAQSYRYPKDDYWGQGTQVTVSS” here?
Its value is “high polyreactivity”.

For “QVQLVESGGGLVQAGGSLRLSCAASGRIFKYYDMGWYRQAPGKERELVARISSGGGRTYYADSVKGRFKISRDNAKNTVYLQMNSLKPEDTAVYYCAADPPASYHTWYGYWGQGTQVTVSS”, which “polyreactivity (PSR sort gate)” value is on record?
Its value is “high polyreactivity”.

For “QVQLVESGGGLVQAGGSLRLSCAASGRIFKYYVMGWYRQAPGKERELVAGISSSGVSTYYADSVKGRFTISRDNAKNTVYLQMNSLKPEDTAVYYCNAKSRTGYGRGDYWGQGTQVTVSS”, which “polyreactivity (PSR sort gate)” value is on record?
The value was “high polyreactivity”.

With “QVQLVESGGGLVQAGGSLRLSCAASGRIFLGNAMGWYRQAPGKDRELVAAITNGGGSTYYADSVKGRFTISRDNAKNTVYLQMNSLKPEDTAVYYCARGYKKSVQRFEYWGQGTQVTVSS” as the sequence, how does the “polyreactivity (PSR sort gate)” value read?
The value was “high polyreactivity”.

For “QVQLVESGGGLVQAGGSLRLSCAASGRIFLGNAMGWYRQAPGKERELVAAITNGGGSTYYADSVKGRFTISRDNAKNTVYLQMNSLKPEDTAVYYCAAPVRQSSYTRYDSWGQGTQVTVSS”, which “polyreactivity (PSR sort gate)” value is on record?
The value was “high polyreactivity”.

For “QVQLVESGGGLVQAGGSLRLSCAASGRIFLGNAMGWYRQAPGKERELVAAITNGGGSTYYADSVKGRFTISRDTAKNTVYLQMNSLKPEDTAVYYCARGYKKSVQRFEYWGQGTQVTVSS”, which “polyreactivity (PSR sort gate)” value is on record?
The value was “high polyreactivity”.

With “QVQLVESGGGLVQAGGSLRLSCAASGRIFLGYTMGWYRQAPGKERELVAAISYSGGSTYYADSVKGRFTISRDYAKNTVYFQMNSLKPEDTAVYYCNKVYSIRGYWGQGTQVTVSS” as the sequence, how does the “polyreactivity (PSR sort gate)” value read?
The value was “high polyreactivity”.

Which “polyreactivity (PSR sort gate)” value does the source give for “QVQLVESGGGLVQAGGSLRLSCAASGRIFLGYTMGWYRQAPGKERELVASMTWSGGSTYYADSVKGRFTISRDKAKNTVYVQMNSLKPEDTAVYYCIAVFWVARGRYDYWGQGTQVTVSS” here?
The value was “high polyreactivity”.

With “QVQLVESGGGLVQAGGSLRLSCAASGRIFLHNAMGWYRQAPGKERELVAAITSGGNTNYADSVKGRFTISRDNAKNTVYLQMNSLKPEDTAVYYCATVGKVHHRLVAMDYWGQGTQVTVSS” as the sequence, how does the “polyreactivity (PSR sort gate)” value read?
The value was “low polyreactivity”.
